Measured values: article PMC2646873 (Biochemistry, 2008)

Molecular target: the molecule itself
Assay: crystal structure

B1: CysM (Rv1336) (enzyme)
chain: MTRYDSLLQALGNTPLVGLQRLSPRWDDGRDGPHVRLWAKLEDRNPTGSIKDRPAVRMIEQAEADGLLRPGATILEPTSGNTGISLAMAARLKGYRLICVMPENTSVERRQLLELYGAQIIFSAAEGGSNTAVATAKELAATNPSWVMLYQYGNPANTDSHYCGTGPELLADLPEITHFVAGLGTTGTLMGTGRFLREHVANVKIVAAEPRYGEGVYALRNMDEGFVPELYDPEILTARYSVGAVDAVRRTRELVHTEGIFAGISTGAVLHAALGVGAGALAAGERADIALVVADAGWKYLSTGAYAGSLDDAETALEGQLWA
stoichiometry N: 2
